Source: the DeepSol protein solubility set

Test: soluble on expression in E. coli; label from the status in PepcDB or PDB records

| Sequence | soluble on expression in E. coli |
| --- | --- |
| TLEPTQSVQNYMIQADSTEGSLQNDWLIMATKAAIQANQLDQADLLIKRLARQQLTEVQQAEWQLARATIQQKQGDYSQLLQLLNFKPWWKLPNEQWKDYYSLRADAYQSLNQPFEANRQLVAFSQYASSAEQREISSRIWMNFGSYSEYELTSLQTEPSEDVLDGWLQLAVYAKTLSGNLSQLKNTLERWLNENPSHPAAIYTPEEIQNILSLDIVKPNNTALLLPLTGKFAPQAQLIRDGFVFAMMNDRNRDPSATLTVIDTNAYSADEVKQRLINENIDFVVGPLQKENVELLQTTMDGSANSPAIPALALNIPEDVQPGTDICYLALSPEQEVAQAAKYLFSEGYSFPLILAPKGSYGERVVQAFNEEWSKYSSNKVATSYFGDKRQLQKDINDVFGLQESKQRIAQMQSLMRIKLETQPRSRRDVDAVYIVARSSELTLIKPFIEVAINPDAKPPKLFSNSRSNSGGATYEDLTGIIYSDIPLLVNPDPIVTAEMNELWADQSNMEKRLKALGMDAYKLIGELPQMKVVPGYSVSGQTGTLSIDNNCVVQRELSWAERGAL | not soluble |
| MYQSYPQQQQPGYQPQQPSHPIVGAGAAPTMAPQNPYGQQPFQPQFQQGQYQQPSGQQYQSMQQQFQSPQQQAPTQPTHPDRESYQTALPANVTPGWNDPPSMLPSAGTTPNRLSNMRRRPVDPSISGNVGYGTSSQTSNPYGASASPYGAPQQNPQQYQEQPQSYQTYQQPQQQQPQYGQQQNPQQFGQQYPGAGAPHQQQHYGM | not soluble |
| MGSDKIHHHHHHMTPLAPHEASQDESAIAERIASAMPRMTPIHRRMGEFVLANPFRAATMRIDELAQAVNASIATANRFAKALGFDGYPAMRAALVRGFEATLGPVERLRSAQEQEQEQGVRGAAWIDAVFDQAIENIENTRARLDATDVEAAVEAIVGARRVLILGAGSSAFLTGLMEHGLSVCHDNVQSLALLGGPTHAARRLYTADSRDLVIALAFPRYVKDTIELARRAAARGARVLGISDGPGSPLAPVASLNLYVKAQRRFAATSEAAVLTMIEALIDAVALRTHRSAKSAAEMTEFLLPWLMQPPAALPAANPSSSGPKKS | not soluble |
| MGSDKIHHHHHHMNDRFVCSLIEKSDLSNFVKKHSKNVFYDIAKAEAAVHQQTIDTIHFHEVGAIDSIVDIVGFFILWEQLEIEQVYSTPITDGSGTITIAHGVMPIPVPAVMELRKETNLIIQQDFEIKTELVTPTGLAIFKELSPLFVAPEQRLIEKIGYGFGKRETGKFNALRGSIFTETHSKKKRTEHHDQVLKIETNIDNQTPEQLGYVMDLLLEHGALDVFFTPIHMKKNRSAILLTVLTTTEEKEYFTELLFKHTSTIGMRFQTMERSVMDRSFKILETPFGKVHIKKNHYHGLLKESIEYQDCERIAKQYNFTIEEVYRLVQTLNNKTID | not soluble |
| SMPNHQKVVLVGDGAVGSSYAFAMAQQGIAEEFVIVDVVKDRTKGDALDLEDAQAFTAPKKIYSGEYSDCKDADLVVITAGAPQKPGESRLDLVNKNLNILSSIVKPVVDSGFDGIFLVAANPVDILTYATWKFSGFPKERVIGSGTSLDSSRLRVALGKQFNVDPRSVDAYIMGEHGDSEFAAYSTATIGTRPVRDVAKEQGVSDDDLAKLEDGVRNKAYDIINLKGATFYGIGTALMRISKAILRDENAVLPVGAYMDGQYGLNDIYIGTPAIIGGTGLKQIIESPLSADELKKMQDSAATLKKVLNDGLAELENK | soluble |
| MLDKLDRLEEEYRELEALLSDPEVLKDKGRYQSLSRRYAEMGEVIGLIREYRKVLEDLEQAESLLDDPELKEMAKAEREALLARKEALEKELERHLLPKDPMDERDAIVEIRAGTGGEEAALFARDLFNMYLRFAEEMGFETEVLDSHPTDLGGFSKVVFEVRGPGAYGTFKYESGVHRVQRVPVTETQGRIHTSTATVAVLPKAEEEDFALNMDEIRIDVMRASGPGGQGVNTTDSAVRVVHLPTGIMVTCQDSRSQIKNREKALMILRSRLLEMKRAEEAERLRKTRLAQIGTGERSEKIRTYNFPQSRVTDHRIGFTTHDLEGVLSGHLTPILEALKRADQERQLAALAEG | soluble |
| RLFGDNVVALAGDAGFRTYWLSNQARLGRYDTPVTAMANMAHFKTWADAPYDEALLPLLDAALAEPGRKVVFLHINGNHDNYCTRYPETATVYQGGAPYEDCYDNSIRYVDALLGAVMDRLGERRASLLFYPDHGLERHESVLGTFYHGGVRPSREAFDIPMFIWNSPAAPAPARREYDAPYSTEDNYGLILDWLG | not soluble |
| MGSDKIHHHHHHMFPAGEMFFIESIRNVRNQIKDEKLLEDIKAFIAQEAFHSREHKMLNNHLIHSNYPEVVEIEAQTKARLDKLRQLSAVEQVAATVVMEHYTATLARLLLTDSLIKAKTTQESRNLWEWHALEELEHKSVAFDVLNAIGGNSSKNRKVALARVAKLITPIIFKYWIKILKRKDINFTLKQLKDGIYLGFGGINRVGILSKAFVDMLDVRAENFDPLNMQTEQLEAEFREKLFGQAGFLRDYLS | not soluble |
| MQNAIKTDASNSTVEARDEEPVAANDNKPASNPGTSVTEDSVAYIFASTYRDTLRFCHSTGAWFEWDGSYWRRNEVGLAAHHVRVMARDMSQGLSPKALATIRKRSFASGVEGFARNDPTFAVTIEAWDRDPFLLGTPDGTVDLRTGKMRAADPADGITKLTSTAPSAQADCPLWLRFLQDATGGDGEMIRFLQQWCGYCLTGDTREHALVFVHGDGGNGKSVFLNTTSYILHDYATTASMDTFVASRSDRHPTDLAMLRGARLVSASETEEGRAWAESRIKQMTGGDAISARFMRQDFFTFQPQFKLFVVGNHQPALHSVDAAARRRFNIVPFTRKPTKPDRELEAKLRGEAPAILRWMVDGCRDWQRNGLVRPASIVEATETYFAEQDTFGQWLKDACRVEPDNRSISDFVADLFKSWTDYAEASGERPGSQKGFVQSLTKSGFKKGQRVRGGQLYIGLQLLRQAEKEPSVRDLEHHHHHH | soluble |
| MGSDKIHHHHHHMSGPAGLIVRMDGFNLPAGYLASDEARAISFAYDDRYIAAGGPPLSLSMPLEQVSFGDVTARAFFDNLLPENDQMQRVMDREGLARDDIVGLLSHLGADCSGAISCLPIGADPIKVPGVLSEDYELLAPGAIAEIARSLAERQRLPDTITDPSPVAGVQRKIALTHTPQGFAKPRPGRKVPTTHILKVPETRLRRDARLEAAAARLASALGLDVSIPEAIVIDGVDALLITRFDRVVRDGVVYRLHQEDFAQAMGLPATLKYQRNGAPGRQFDAQAIARVLDQTEAPALSRTAFLSATIFNLLIGNTDNHAKNHGLLYRQGRAPILAPLYDLLPSRMNLDFNDQLSFNIGAADHPDAITFDDMMAFFEVFGMRRAAAARFIENVIKPMIEALERATLGLAGERLKDMDDLIGRETEQLVEVLGLDVAVRERDYYPKVRHALAPS | not soluble |
| MGSDKIHHHHHHMSSNSRVYGIVPSKRLGRSLGVSPIPFKTCTYSCVYCQLGRTTNFTVKRQTFFPLKVFEEELKGFVKRHRYDFDVVSIVGEGEPTLYTPLDALIDLCKSITGKPVVLITNGSLFWSEKVRKEAKLSDIIMPTLSAWDEKSFRTIHKPHKNLSFQKVFEGLKKFRREYSGEIWLEVMLVKGLNDFALEELKEKISQVESDRVYVNVPVRPPAEGWVEPPDEETIEKAKELFNAASIETPAASRFIAAGEGIDAVLNVIKRHPMNEEEVRDLLTSQKIDPKPVLEKLRSCKNVKIIEYSGRRYYRYTTAE | not soluble |
| MRRARIQIKPNISKAAKQEPPPEPAPVVEETLPQAPVVAEPRILENVETMTNQVSLTVASESMKSLHVDTSKNHHVHFTDDVIDNEQNRIQETPDIVMISPTSQQNAQFASPNPPARLTPRSRNVSMCEDEAILQPKQPRDKKRFSGREELDTKTWKMSDLTRWNPKNEMTRFKRERRSSTSSSVITKSEIGDLDAPPAPRINAPQVKIGADGRLVIDETSLVVHSAQINHESVWETVEEGRMGAKITSMSFRKRGFGKSSFWSEKETDLFYEVLQCTGQDFGLMSHYLPKRTRPELKAKYNREEKINWARVLNAISHPVRLDGNLEVRISKLMTEMEEEAQEKKAKGEYEKAEEKRIREQNRLQKATERNQAKELVKQAKELERDARNAAKLNMKADKEARAQEKSETRQLEKTALKEARLMATEAKRIAMEARAIIKESRKLEKSKKADSVQSDSHNLEREAERIIRRLLQESQREDRRTAHFNKNDKPAAPKSTEEATTSEVSAPTKSPAPVVVTIDASEGELGDTSTDAADSSSASSSDDDALRKDAARREKQRMKEARRNLKPRKTVADKKPVYVDTTDPKYAQQKVSRAVEMVLKANGNMFDSAGEQDDDFPDPDEMETSAEPVVVEEVAPDPTPPPPENMEENVVEESVPQSVIDVVEEIMRGRSKTPVETAVKPLENTEESKTDGEDRKKRSADVDSGGPSPKVARLEGVDVPVEDSTEVATSSTVTSSSAPSSSSSTTVAPAIKPSTAPKPAIASARRTVKKPNTWSKKK | not soluble |
| MSLVMWLMAHSEKLEDLLEGKPVVIIEDGELAWSKLNNSNMTEFEFFMELRLRGVEQLGQVRLAILETNGQISVYFFEDDKVKPGLLILPSDCTQRYKVVPESADYACIRCSEIIHMNAGEKQLCPRCANPEWTKASRAKRVTEGHHHHHH | soluble |
| MGSDKIHHHHHHMDKAGKETPFWVQKTLAQLNAHEWEALCDRCGLCCLVKAEDEEAGDIYLTSLICPFFDLKTKVCSCYSQRKQQNPDCSTLTPMTVQTYDWLPDHCAYRLVAAGKPLPTWHPLISGRHDTVVNVMNYFKGVKIRHLQPHSDLEDYLILDPPEG | not soluble |
| ELISRYPERYCRASSGRCTFAFHPAPEKSFNRGFTNLLLSGKRDTNTLITPESNKSKGAYIGCVTAVNRDKVSIRLRPDNTGAKPSLANGDGLYLLHPDGNMSGTRINVVLPDGSIQVDNPAGIVSGTNVFRNYDIRFEKALSQDNSAVRLIPVSLTLTDVPDGFSLSIEADCYPSAKATITAAHEPATRFDEEQIRKNLTKLGGTPLEAVSVDIRLSHDYFIPLSLIGRLRRDAVQSFIEKASSMPEREEKPVVQRRISPAASSLQEGEQSLSFLANVANKEAETFYRQMGYTSIAPAFEHSHPQGVPLMFSKHCLRYHLGYCPTLQHKESPYREPYYLIHGETRLRLRFDCQHCQMLVYHDSEGIKQT | not soluble |
| MGSDKIHHHHHHMTKFIVDSSYWNLFPTSKIGVILIKDYHMDRNLETELKQLLSDSHSLAKKYLQEKEFSQNRVIQTYRKAYQTFKTKKGARSSIEALLKRVNSGNEITSINPLVDIYNAASLRFGLPIGAEDSDTFRGDLKLTITNGGDEFYLIGEDFNRPTLSGELAYVDDVGAVCRCFNWRDGKRTMITDNTQNAFLVIELIDNGREIIFKEALDFIATNTNRFLKAKTQTIILDKEHSEITL | not soluble |
| MVDAGLVLAAGFSRRFRGLLGVHKVAAGVRGYPLLCYPVTSLALAGVDRVFVVASQFNLNVVELVLGHCPFRVSGVLISSLSTLGNGFSLVEGLREAGLRGSRCLAVSMADHVYPPSIARRLIEAGCNTLGVDSRPRYIEVGEATHVSLEPGAGVRLGKDVEGCCVDIGIHTIEAGIASIGCIDLPPRGEASVSQLITCAARKGYTFKLVDVDGGPWMEVDSPEDLERLLQGDGLEVLEAVRSEWGFLEHHHHHH | not soluble |
| MASPDEDNPGILYNGRFDFSDPNGPKCAWSGSNVELNFYGTEASVTIKSGGENWFQAIVDGNPLPPFSVNATTSTVKLVSGLAEGAHHLVLWKRTEASLGEVQFLGFDFGSGKLLAAPKPLERKIEFIGDSITCAYGNEGTSKEQSFTPKNENSYMSYAAITARNLNASANMIAWSGIGLTMNYGGAPGPLIMDRYPYTLPYSGVRWDFSKYVPQVVVINLGTNDFSTSFADKTKFVTAYKNLISEVRRNYPDAHIFCCVGPMLWGTGLDLCRSYVTEVVNDCNRSGDLKVYFVEFPQQDGSTGYGEDWHPSIATHQLMAERLTAEIKNKLGWLEHHHHHH | soluble |
